Assay results reported in patent publication US6277617A, “Chemically modified enzymes” (Genencor International, Inc., priority 1997, dated 2001).
Where a chain is given by its changes, count along the chain named. Numbers in names are those of the source.

Substrate: C[C@H](NC(=O)CCC(=O)O)C(=O)N[C@@H](C)C(=O)N1CCC[C@H]1C(=O)N[C@@H](Cc1ccccc1)C(=O)Nc1ccc([N+](=O)[O-])cc1
Experiment: Hydrolysis of succinyl-L-Ala-L-Ala-L-Pro-L-Phe-p-nitroanilide, kinetic parameters
Format: biochemical, Bacillus lentus
Conditions: pH 7.5, 0.1 M sodium phosphate, 0.5 M NaCl, 1% DMSO, 25° C.
Description: Activity, including the kinetic parameters kcat, KM, and kcat /KM were measured for hydrolysis of the synthetic peptide substrate succinyl-L-Ala-L-Ala-L-Pro-L-Phe-p-nitroanilide using the method described in Bonneau, P. et al. (1991) J. Am. Chem. Soc., 113(3):1030. Briefly, a small aliquot of subtilisin variant stock solution was added to a 1 cm cuvette containing substrate dissolved in 0.1 M sodium phosphate buffer, pH 7.5, containing 0.5 M NaCl and 1% DMSO, and thermostated at 25° C. or similarly at pH 8.6, 0.1 M tris buffer containing 0.05% Tween™80 and 1% DMSO. The reaction progress was followed spectrophotometrically by monitoring the absorbance of the reaction product p-nitroaniline at 410 nm using a Perkin Elmer λ2 spectrophotometer (Δε410 8800 M^-1 cm^-1).
The modified enzymes were prepared as described above after site-directed mutagenesis to replace the amino acid of interest with a cysteine. The kinetic parameters were determined at pH 7.5 as described above. The precursor protease was a Bacillus lentus subtilisin (SBL-WT).
To examine the effects of chemical modification on the pH profile of SBL, seven modified N62C mutants were made as described above. 0.02M ethylene diamine buffers of ionic strength 0.05M (adjusted with KCl) were employed with 1.25×10^-4 M succinyl-AAPF-pNA substrate and Kcat /KM measurements were performed as described above. Kcat /KM reflects the pKa of His64, part of the catalytic triad for SBL, in the free enzyme and is unaffected by nonproductive binding modes. Fersht, A. E. (1985) Enzyme Structure and Mechanism 2 ed., Freeman (New York). pKa was calculated using Graphit (McGeary & Associates, Middletown Conn.). The shift in pKa reflects a shift in the pH profile of SBL. Representative pH profiles for SBL N62C-Scylcohexyl (N62C-Scy) and SBL-WT are shown in FIG. 3 ([E]=1×10^-7 to 5×10^-8 M at 25° C.). Points were done in duplicate.

B1: Bacillus lentus subtilisin, wild type (SBL-WT) (Lederbergia lenta) (protein)
chain: AQSVPWGISRVQAPAAHNRGLTGSGVKVAVLDTGISTHPDLNIRGGASFVPGEPSTQDGNGHGTHVAGTIAALNNSIGVLGVAPSAELYAVKVLGASGSGSVSSIAQGLEWAGNNGMHVANLSLGSPSPSATLEQAVNSATSRGVLVVAASGNSGAGSISYPARYANAMAVGATDQNNNRASFSQYGAGLDIVAPGVNVQSTYPGSTYASLNGTSMATPHVAGAAALVKQKNPSWSNVQIRNHLKNTATSLGSTNLYGSGLVNAEAATR
notes: made in house; host or cells: B. subtilis
other: SBL-WT
  Km: 550 µM
  kcat: 48 s⁻¹
  kcat/Km: 87000 M⁻¹ s⁻¹

B2: Bacillus lentus subtilisin (SBL) variant N62C (Lederbergia lenta; N60C) (protein)
chain: B1 chain with N60C
notes: as for B1
other: N62C
  Km: 1490 µM
  kcat: 61 s⁻¹
  kcat/Km: 41000 M⁻¹ s⁻¹
